This note sets out measurements from patent US20150274820A1 (ESBATECH AN ALCON BIOMEDICAL RESEARCH UNIT, published 2015).

The target of assay [1] is T1, recombinant human VEGF165 (human, UniProt P15692 27-191).
T1 construct: mature; Isoform VEGF165 of the entry; also called hVEGF165; hVEGF
Briefly: Biacore SPR, VEGF immobilized, pH 5. The protocol: (§1) In this example, the Biacore-binding ability of scFvs was tested and the binding affinity was measured using the exemplary surface plasmon resonance method with BIAcore™-T100. The VEGF proteins, tested for binding by these scFv candidates, in this example and later examples include purified Escherichia coli-expressed recombinant human VEGF₁₆₅ (PeproTech EC Ltd.), recombinant human VEGF₁₂₁ (PeproTech EC Ltd.), recombinant human VEGF₁₁₀ (ESBATech AG), recombinant murine VEGF₁₆₄ (PeproTech EC Ltd.), recombinant rat VEGF₁₆₄ (Biovision), recombinant rabbit VEGF₁₁₀ (ESBATech AG), and recombinant human PLGF (PeproTech EC Ltd.). For the surface plasmon resonance experiment, carboxymethylated dextran biosensor chips (CM4, GE Healthcare) were activated with N-ethyl-N′-(3-dimethylaminopropyl) carbodiimide hydrochloride and N-hydroxysuccinimide according to the supplier's instructions. Each of the 6 different VEGF forms, as exemplified above, was coupled to 1 of the 4 different flow cells on a CM4 sensor chip using a standard amine-coupling procedure. […] The 4th flow cell of each chip was treated similarly except no proteins were immobilized prior to blocking, and the flow cell was used as in-line reference. […] Dissociation of the anti-VEGF scFv from the VEGF on the CM4 chip was allowed to proceed for 10 min at 25° C. Sensorgrams were generated for each anti-VEGF scFv sample after in-line reference cell correction followed by buffer sample subtraction. The apparent dissociation rate constant (kd), the apparent association rate constant (kₐ) and the apparent dissociation equilibrium constant (KD) were calculated using one-to-one Langmuir binding model with BIAcore T100 evaluation Software version 1.1.
Background: Surface plasmon resonance follows binding to a sensor surface in real time, without labels.

Assay [2] deals with recombinant rat VEGF164 (rat) (UniProt P16612). In words: Biacore SPR, VEGF immobilized, pH 5.
The target in assay [3] is recombinant murine VEGF164 (mouse) (UniProt Q00731). Briefly: Biacore SPR, VEGF immobilized, pH 5.
For assay [4], the target named is T2, recombinant human PLGF (human, UniProt P49763-2 19-149, limits assumed).
T2 construct: Negative control; also called PIGF
T2 sequence (looked up): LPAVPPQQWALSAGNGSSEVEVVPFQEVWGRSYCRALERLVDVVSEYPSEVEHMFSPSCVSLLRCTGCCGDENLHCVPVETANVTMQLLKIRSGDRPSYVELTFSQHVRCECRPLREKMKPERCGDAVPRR
In words: Biacore SPR, PlGF immobilized, pH 5. As for the experimental part:
as §1

For assay [5], the target named is T1, recombinant human VEGF165. In words: cell-based or functional assay.
The target in assay [6] is T1, recombinant human VEGF165. Briefly: Biacore SPR, VEGF immobilized, pH 5. As for the experimental part:
as §1
This is another data set of the same source.

Assay [7] addresses T3, recombinant human VEGF121 (human, UniProt P15692 27-147).
T3 construct: mature; Isoform VEGF121 of the entry; also called hVEGF121
T3 sequence (looked up): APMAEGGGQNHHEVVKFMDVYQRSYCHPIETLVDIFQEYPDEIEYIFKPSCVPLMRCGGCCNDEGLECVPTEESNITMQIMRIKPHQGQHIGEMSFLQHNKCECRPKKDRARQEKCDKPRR
Briefly: Biacore SPR, VEGF immobilized, pH 5. As for the experimental part:
as §1

The target of assay [8] is T4, recombinant human VEGF110 (human, UniProt P15692-4 27-136, limits assumed).
T4 construct: Made in house; also called hVEGF110
T4 sequence (looked up): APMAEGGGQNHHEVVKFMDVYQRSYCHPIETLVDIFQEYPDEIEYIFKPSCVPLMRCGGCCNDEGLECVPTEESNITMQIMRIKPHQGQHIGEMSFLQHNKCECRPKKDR
Briefly: Biacore SPR, VEGF immobilized, pH 5. As for the experimental part: as §1

For assay [9], the target named is T1, recombinant human VEGF165. In words: Biacore SPR, VEGF immobilized, pH 7.4. As for the experimental part: as §1
Assay [10] deals with T1, recombinant human VEGF165. Briefly: Biacore SPR, VEGF immobilized, pH 5. As for the experimental part: as §1, with “1.1. […]” for “1.1.”
The source holds these as a separate data set.

Assay [11] concerns the target recombinant rat VEGF164 (rat) (UniProt P16612). In words: Biacore SPR; ratio to hVEGF165.
Assay [12] has as its target recombinant murine VEGF164 (mouse) (UniProt Q00731). Briefly: Biacore SPR; ratio to hVEGF165.

T1 sequence (P15692 other isoform, or with tags, fused parts or gaps): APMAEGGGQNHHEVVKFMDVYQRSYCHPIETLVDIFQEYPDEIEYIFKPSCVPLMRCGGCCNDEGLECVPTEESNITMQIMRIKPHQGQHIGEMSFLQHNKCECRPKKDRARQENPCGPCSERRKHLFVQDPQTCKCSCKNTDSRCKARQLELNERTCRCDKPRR

B1: 567-max (scFv)
scFv: EIVMTQSPSTLSASVGDRVIITCQADQSIYIWLSWYQQKPGKAPKLLIYKASTLESGVPSRFSGSGSGTQFTLTISSLQPDDFATYYCQNNAHYSTNGGTFGQGTKLTVLGGGGGSGGGGSGGGGSGGGGSEVQLVESGGGLVQPGGSLRLSCSVSGFSLSDYYMCWVRQAPGKGLEWVGCLDYFGSTDDASWAKGRFTISKDTSKNTVYLQMNSLRAEDTAVYYCARTDDSRGWGLNIWGQGTLVTVSS
notes: VL and VH tied by name; also called Protein Nr; 874
As a reminder, the koff is a measure of how fast the partners let go of each other. Usually kon stands for the second-order rate constant of association. Take B1: the koff was 0.000226 s⁻¹ in assay [1]; 0.000203 s⁻¹ in [2]; 0.000152 s⁻¹ in [3]; 0.000226 s⁻¹ in assay [6]; 5.76e-05 s⁻¹ in [7]; 3.27e-05 s⁻¹ in [8]. For the same molecule, the koff in assay [9] came out at 0.000167 s⁻¹. Moreover, the kon was 1.2e+06 M⁻¹ s⁻¹ in assay [1]; 1.36e+06 M⁻¹ s⁻¹ in assay [2]; 1.64e+06 M⁻¹ s⁻¹ in assay [3]; 1.2e+06 M⁻¹ s⁻¹ in assay [6]; 1.13e+06 M⁻¹ s⁻¹ in [7]; 1e+06 M⁻¹ s⁻¹ in assay [8]. Besides, the kon in assay [9] was found to be 1.17e+06 M⁻¹ s⁻¹. Besides, the binding result in assay [4] is recorded as “no binding”. In addition, the “Rel. activity in HUVEC assay (EC50Luc[nM]/EC50test[nM])” value in assay [5] was 0.0086.

B2: 567-min (scFv)
scFv: EIVMTQSPSTLSASVGDRVIITCQADQSIYIWLSWYQQKPGKAPKLLIYKASTLESGVPSRFSGSGSGAEFTLTISSLQPDDFATYYCQNNAHYSTNGGTFGQGTKLTVLGGGGGSGGGGSGGGGSGGGGSEVQLVESGGGLVQPGGSLRLSCAASGFSLSDYYMCWVRQAPGKGLEWVSCLDYFGSTDDASWAKGRFTISRDNSKNTLYLQMNSLRAEDTAVYYCAKTDDSRGWGLNIWGQGTLVTVSS
notes: also called Protein Nr; 884
For the molecule B2, the koff was found to be 0.000461 s⁻¹ in assay [1]; 0.00048 s⁻¹ in assay [2]; 0.00035 s⁻¹ in assay [3]; 0.000461 s⁻¹ in [6]; 4.54e-05 s⁻¹ in assay [7]; 3.82e-05 s⁻¹ in assay [8]. For the same molecule, the koff in assay [9] is 0.0007 s⁻¹. The on-rate constant (kon) in assay [1] turned out to be 2.01e+06 M⁻¹ s⁻¹; in [2], 1.72e+06 M⁻¹ s⁻¹; in assay [3], 2.06e+06 M⁻¹ s⁻¹; in assay [6], 2.01e+06 M⁻¹ s⁻¹; in assay [7] it was 1.89e+06 M⁻¹ s⁻¹; in assay [8] it was 1.52e+06 M⁻¹ s⁻¹. Also, the association rate constant (kon) in [9] came out at 1.11e+06 M⁻¹ s⁻¹. For the same molecule, in assay [4], the binding result is recorded as “no binding”.

B3: 375-max (scFv)
scFv: EIVMTQSPSTLSASVGDRVIITCQASENINIWLSWYQQKPGKAPKLLIYQASKLASGVPSRFSGSGSGTQFTLTISSLQPDDFATYYCQNNYSYNRYGAPFGQGTKLTVLGGGGGSGGGGSGGGGSGGGGSEVQLVESGGGLVQPGGSLRLSCKASGFSFTTTDYMCWVRQAPGKGLEWVGCILAGDGSTYYANWAKGRFTGSKDTSKNTVYLQMNSLRAEDTAVYYCARSDPASSWSFALWGQGTLVTVSS
notes: VL and VH tied by name; also called Protein Nr; 873
Take B3: the koff in assay [1] came to 0.00655 s⁻¹; in [9], 0.242 s⁻¹. In addition, the kon was 2.44e+06 M⁻¹ s⁻¹ in assay [1] and 5.09e+07 M⁻¹ s⁻¹ in [9].

B4: 578min_max T84N_V89L (scFv)
scFv: EIVMTQSPSTLSASVGDRVIITCQASEIIHSWLAWYQQKPGKAPKLLIYLASTLASGVPSRFSGSGSGAEFTLTISSLQPDDFATYYCQNVYLASTNGANFGQGTKLTVLGGGGGSGGGGSGGGGSGGGGSEVQLVESGGGLVQPGGSLRLSCTASGFSLTDYYYMTWVRQAPGKGLEWVGFIDPDDDPYYATWAKGRFTISRDNSKNTLYLQMNSLRAEDTAVYYCAGGDHNSGWGLDIWGQGTLVTVSS
notes: the VH entry already carries T84N and V89L; tied by name; also called Protein No. 1008
What is called Kd is a measure of binding affinity in units of concentration. Turning to B4, in assay [10], the Kd is 1.59 nM, the koff is 0.0018 s⁻¹ and the kon is 1.13e+06 M⁻¹ s⁻¹. Further, in assay [2], the Kd was found to be 1.89 nM, the koff was 0.00152 s⁻¹ and the kon worked out at 802000 M⁻¹ s⁻¹. For the same molecule, in assay [3], the dissociation constant (Kd) is 1.53 nM, the koff is 0.00188 s⁻¹ and the kon stood at 1.23e+06 M⁻¹ s⁻¹. Besides, in assay [11], the relative value KdhVEGF165/KdmVEGF164 (rat block) was 0.8 and the relative value kdhVEGF165/kdmVEGF164 (rat block) came out at 1.2. Further, in [12], the relative value KdhVEGF165/KdmVEGF164 was 1 and the relative value kdhVEGF165/kdmVEGF164 amounted to 1.

B5: 578min_max T84N_V89L_DHP (scFv)
scFv: EIVMTQSPSTLSASVGDRVIITCQASEIIHSWLAWYQQKPGKAPKLLIYLASTLASGVPSRFSGSGSGAEFTLTISSLQPDDFATYYCQNVYLASTNGANFGQGTKLTVLGGGGGSGGGGSGGGGSGGGGSEVQLVESGGGSVQPGGSLRLSCTASGFSLTDYYYMTWVRQAPGKGLEWVGFIDPDDDPYYATWAKGRFTISRDNSKNTLYLQMNSLRAEDTATYYCAGGDHNSGWGLDIWGQGTTVTVSS
As for B5, in assay [2], the dissociation constant (Kd) turned out to be 1.82 nM, the koff was 0.0019 s⁻¹ and the kon came out at 1.04e+06 M⁻¹ s⁻¹. Besides, in [3], the Kd was 1.46 nM, the koff is 0.00216 s⁻¹ and the kon was determined as 1.47e+06 M⁻¹ s⁻¹. In assay [11], the relative value KdhVEGF165/KdmVEGF164 (rat block) was 1.5 and the relative value kdhVEGF165/kdmVEGF164 (rat block) was determined as 1.6. In assay [12], the relative value KdhVEGF165/KdmVEGF164 came to 1.8 and the relative value kdhVEGF165/kdmVEGF164 was found to be 1.4.

B6: 578minmax FW1.4_DHP (scFv)
scFv: EIVMTQSPSTLSASVGDRVIITCQASEIIHSWLAWYQQKPGKAPKLLIYLASTLASGVPSRFSGSGSGAEFTLTISSLQPDDFATYYCQNVYLASTNGANFGQGTKLTVLGGGGGSGGGGSGGGGSGGGGSEVQLVESGGGSVQPGGSLRLSCTASGFSLTDYYYMTWVRQAPGKGLEWVGFIDPDDDPYYATWAKGRFTISRDTSKNTVYLQMNSLRAEDTATYYCAGGDHNSGWGLDIWGQGTTVTVSS
notes: tied by name only
As for B6, in assay [10], the Kd came out at 0.576 nM, the koff turned out to be 0.000409 s⁻¹ and the kon stood at 711000 M⁻¹ s⁻¹. Moreover, in assay [2], the Kd turned out to be 0.845 nM, the koff stood at 0.000676 s⁻¹ and the kon came out at 800000 M⁻¹ s⁻¹. For the same molecule, in assay [3], the Kd turned out to be 0.608 nM, the koff is 0.000669 s⁻¹ and the on-rate (kon) was determined as 1.1e+06 M⁻¹ s⁻¹. Besides, in [11], the relative value KdhVEGF165/KdmVEGF164 (rat block) stood at 0.7 and the relative value kdhVEGF165/kdmVEGF164 (rat block) worked out at 0.6. For the same molecule, in [12], the relative value KdhVEGF165/KdmVEGF164 worked out at 0.9 and the relative value kdhVEGF165/kdmVEGF164 was 0.6.
